From US20190248902A1 (published 2019) come the findings set out here.

The target of test [1] is T1, recombinant, soluble human ASGR-1 (human, UniProt P07306 62-291).
T1 construct: biotinylated in the binning assay; also called soluble huASGR-1; Soluble ASGR-1 (Amgen)
T1 sequence: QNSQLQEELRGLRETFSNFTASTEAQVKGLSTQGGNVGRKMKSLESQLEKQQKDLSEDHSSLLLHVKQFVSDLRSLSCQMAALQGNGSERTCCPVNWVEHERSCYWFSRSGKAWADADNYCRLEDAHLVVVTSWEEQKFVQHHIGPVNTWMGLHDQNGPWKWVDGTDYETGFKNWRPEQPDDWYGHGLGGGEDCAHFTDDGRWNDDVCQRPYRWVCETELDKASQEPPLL
In words: Octet BLI dissociation, pH 5.6 minus calcium. The method in brief:
(§1)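 Antibodies were captured on anti-human Fc biosensors, and soluble ASGR-1 (6 ug/ml) was associated for 2 min in Tris buffer containing 1 mM CaCl2 at pH 7.4, followed by 10 min dissociation under each test condition. The signal at the end of association was set as 100%. Percent ASGR-1 still bound after 1 min of dissociation was compared with the pH 7.4 plus calcium control, and >10% extra dissociation was scored as sensitive.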
In general terms: In BLI a coated tip is dipped into the sample, and binding shifts an interference pattern.

The target of test [2] is T1, recombinant, soluble human ASGR-1. In words: Octet BLI dissociation, pH 7.4 minus calcium. The method in brief: as §1
Test [3] has the same target. In words: Octet BLI dissociation, pH 5.6 plus calcium. The method in brief: as §1

B1: 51E3 (antibody, V domains shown)
VH: QVQLVQSGAEVKKPGASVKVSCKASGYTFNSYGISWVRLAPGQGLEWMGWISAYNGNTKNAQRFQGRVTMTTDTSTSTAYMELRSLRSDDTAVYYCARHDFWSGYYKGMDVWGQGTTVTVSS
VL: not shown
notes: hybridoma mAb
B1: the “% Change Compared to pH 7.4 + Calcium” value was found to be 42% in test [1], 65% in test [2] and 16% in test [3].

B2: 53E8 (antibody, V domains shown)
VH: QVQLVQSGAEVKKPGASVKVSCKASGYTFNSYGISWVRQAPGQGLEWMGWISAYNGNTKFAQKLQGRVTMTTDTSTSTAYMELRSLRSDDTAVYYCARHDFWSGYYKGMDVWGQGTTVTVSS
VL: not shown
notes: hybridoma mAb
For the molecule B2, the entries for the “% Change Compared to pH 7.4 + Calcium” value in test [1], in test [2] and in test [3] were 64%, 68% and 20%, respectively.

B3: 54E9 (antibody, V domains shown)
VH: QVQLVQSGAEVKKPGASVKVSCKASGYTFNSYGISWVRLAPGQGLEWMGWISAYNGNTKNAQKLQGRVTMTTDTSTSTAYMELRSLRSDDTAVYYCARHDFWSGYYKGMDVWGQGTTVTVSS
VL: not shown
notes: hybridoma mAb
Consider B3, for which the “% Change Compared to pH 7.4 + Calcium” value in test [1] turned out to be 75%; in test [2] it was 79%; in test [3] it was 24%.

B4: 56E3 (antibody, V domains shown)
VH: QVQLVQSGAEVKKPGASVKVSCKASGYTFNSYGFSWVRQAPGQGLEWMGWISAYNGNTKEAQKFQGRVTMTTDTSTSTAYMELRSLRADDTAVYYCARHDFWSGYYKGMDVWGQGTTVTVSS
VL: not shown
notes: hybridoma mAb
Take B4: the figures for the “% Change Compared to pH 7.4 + Calcium” value in test [1], in test [2] and in test [3] were 16%, 75% and 21%, respectively.

B5: 190E6 (antibody, V domains shown)
VH: QVQLVESGGGVVQPGRSLRLSCAASGFTFSSYGMHWVRQAPGKGLEWVAVIWYDGSNKNYADSVKGRFTISRDNSKNTLYLQMNSLRAEDTAVYYCARDQGVGYDGLDVWGQGTTVTVSS
VL: DIQMTQSPSSLSASVGDRVTITCRTSQGIGNYLAWFQQKPGKAPKSLLYKASSLQSGVPSKFSGSGSGTDFTLTISSLQPEDFATYYCQQYMTYPLTFGGGTKVEIK
notes: hybridoma mAb
Turning to B5, the “% Change Compared to pH 7.4 + Calcium” value in test [1] is -6%; in test [2], -1%; in test [3], -12%.

B6: 191G1 (antibody, V domains shown)
VH: QVQLVESGGGVVQPGRSLRLSCAASGFTFSSYGMHWVRQAPGKGLEWVAVIWYDGSNEHYADSVKGRFTISRDNSKNTLYLQMNSLRAEDTAVYYCARDRGVGYYGLDVWGQGTTVTVSS
VL: DIQMTQSPSSLSASVGDRVTITCRASQGISNYLAWFQQKPGKAPKSLIYAASSLQSGVPSKFSGSGSGTDFTLTISSLQPEDFATYYCQHYLTYPLTFGGGTKVEIK
notes: hybridoma mAb
In the case of B6, the “% Change Compared to pH 7.4 + Calcium” value in test [1] was -11%; in test [2], -10%; in test [3], -15%.

B7: 191E10 (antibody, V domains shown)
VH: QVQLVESGGGVVQPGRSLRLSCAASGFTFSSYGMHWVRQAPGKGLEWVAVIWYDGSNKNYADSVKGRFTISRDNSKNTLYLQMNSLRAEDTAMYYCARDQGVGYDGLDVWGQGTSVTVSS
VL: DIQMTQSPSSLSASVGDRVTITCRASQGIGKYLAWFQQKPGKAPKSLIYAASSLQSGVPSKFSGSGSGTDFTLTISSLQPENFATYYCQQYSTYPLTFGGGTKVEIK
notes: hybridoma mAb
For B7, the figures for the “% Change Compared to pH 7.4 + Calcium” value in test [1], in test [2] and in test [3] were -9%, -1% and -9%, respectively.

B8: 192C8 (antibody, V domains shown)
VH: QVQLVESGGGVVQPGRSLRLSCAASGFTFSSYGMHWVRQAPGKGLEWVAVIWYDGSNEHYADSVKGRFMISRDNSKNTLYLQMNSLRAEDTAVYYCARDRGVGYYGMDVWGQGTTVTVSS
VL: DIQMTQSPSSLSASVGDRVTITCRASQGISNYLAWFQQKPGKAPKSLIYAASSLQSGVPSKFSGSGSGTDFTLTISSLQPEDFATYYCQHYLTYPLTFGGGTKVEIK
notes: hybridoma mAb
With B8, the “% Change Compared to pH 7.4 + Calcium” value in test [1] was -14%; in test [2], -9%; in test [3] it was -14%.

B9: 190F8 (antibody, V domains shown)
VH: QVQLVESGGGVVQPGRSLRLSCAASGFTFSTYGMHWVRQAPGKGLEWVAVIWYDGSNKNYADSVKGRFTISRDNSKNTLYLQMNSLRAEDTAVYYCARDQGVGYDGLDVWGQGTTVTVSS
VL: DIQMTQSPSSLSASVGDRVTITCRTSQGIGNYLAWFQQKPGKAPKSLLYKASSLQSGVPSKFSGSGSGTDFTLTISSLQPEDFATYYCQQYMTYPLTFGGGTKVEIK
notes: hybridoma mAb
In the case of B9, the “% Change Compared to pH 7.4 + Calcium” value was -5% in test [1], -1% in test [2] and -5% in test [3].

B10: 192G8 (antibody, V domains shown)
VH: QVQLVESGGGVVQPGRSLRLSCAASGFTFSSYGMHWVRQAPGKGLEWVAVIWYDGSNKNYADSVKGRFTISRDNSKNTLYLQMNSLRAEDTAVYYCARDQGVGYDGLDVWGQGTTVTVSS
VL: DIQMTQSPSSLSASVGDRVTITCRTSQGIGNYLAWFQQKPGKAPKSLLYKASSLQSGVPSKFSGSGSGTDFTLTISSLQPEDFATYYCQQYITYPLTFGGGTKVEIK
notes: hybridoma mAb
Turning to B10, the “% Change Compared to pH 7.4 + Calcium” value in test [1] was -6%; in test [2] it was -1%; in test [3], -5%.

B11: 191A10 (antibody, V domains shown)
VH: QVQLVESGGGVVQPGRSLRLSCAASGFTFSSYGMHWVRQAPGKGLEWVAVIWYDGSNKNYADSVKGRFTISRDNSKNTLYLQMNSLRAEDTAMYYCARDQGVGYDGLDVWGQGTSVTVSS
VL: DIQMTQSPSSLSASVGDRVTITCRASQGIGKYLAWFQQKPGKAPKSLIYAASSLQSGVPSKFSGSGYGTDFTLTISSLQPENFAIYYCQQYSTYPLTFGGGTKVEIK
notes: hybridoma mAb
As for B11, the results for the “% Change Compared to pH 7.4 + Calcium” value in test [1], in test [2] and in test [3] were -5%, 0% and -5%, respectively.

B12: 192G6 (antibody, V domains shown)
VH: QVQLVESGGGVVQPGRSLRLSCAASGFTFSSYGMHWVRQAPGKGLEWVAVLWYDGTNKNYADSVKGRFTISRDNSKNTLYLQMNSLRAEDTAVYYCARDQGVGYDGLDVWGQGTTVTVSS
VL: DIKMTQSPSSLSASVGDRVTITCRTSQGIGNYLAWFQQKPGKAPKSLLYKASSLQSGVPSKFSGSGSGTDFTLTISSLQPEDFATYYCQQYMTYPLTFGGGTKVEIK
notes: hybridoma mAb
As for B12, the “% Change Compared to pH 7.4 + Calcium” value is -6% in test [1], -1% in test [2] and -6% in test [3].

B13: 191G10 (antibody, V domains shown)
VH: QVQLVESGGGVVQPGRSLRLSCAASGFTFSSYGMHWVRQAPGKGLEWVAVIWYDGSNKNYADSVKGRFTISRDNSKNTLYLQMNSLRAEDTAVYYCARDQGVGYDGLDVWGQGTTVTVSS
VL: DIQMTQSPSSLSASVGDRVTITCRTSQGIGKYLAWFQQKPGKAPKSLLYKVSSLQSGVPSKFSGSGSGTDFTLTISSLQPEDFATYYCQQYMTYPLTFGGGTKVEIK
notes: hybridoma mAb
Turning to B13, the figures for the “% Change Compared to pH 7.4 + Calcium” value in test [1], in test [2] and in test [3] were -5%, 0% and -5%, respectively.

B14: 190G11 (antibody, V domains shown)
VH: QVQLVESGGGVVQPGRSLRLSCAASGFTFSIYGMHWVRQAPGKGLEWVAVIWYDGSNKNYADSVKGRFTISRDNSKNTLYLQMNSLRAEDTAVYYCARDQGVGYDGLDVWGQGTTVTVSS
VL: DIQMTQSPSSLSASVGDRVTITCRTSQGIGNYLAWFQQKPGKAPKSLLYKASSLQSGVPSKFSGSGSGTDFTLTISSLQPEDFATYYCQQYMTYPLTFGGGTKVEIK
notes: hybridoma mAb
As to B14, the “% Change Compared to pH 7.4 + Calcium” value in test [1] was -5%; in test [2], -2%; in test [3], -8%.

B15: 191G12 (antibody, V domains shown)
VH: QVQLVESGGGVVQPGRSLRLSCAASGFTFSSYGMHWVRQAPGKGLEWVAVIWYDGSNKNYADSVKGRFTISRDNSKNTLYLQMNSLRAEDTAVYYCARDQGVGYDGLDVWGQGTTVTVSS
VL: DIQMTQSPSSLSASVGDRVTITCRTSQGIGNYLAWFQQKPGKAPKSLLYKASSLQSGVPSKFSGSGSGTDFTLTISSLQPEDFATYYCQQYITYPLTFGGGSKVEIK
notes: hybridoma mAb
For B15, the entries for the “% Change Compared to pH 7.4 + Calcium” value in test [1], in test [2] and in test [3] were -6%, -2% and -5%, respectively.

B16: 190C11 (antibody, V domains shown)
VH: QVQLVESGGGVVQPGRSLRLSCAASGFTFSSYGMHWVRQAPGKGLEWVAVIWYDGSNKNYADSVKGRFTISRDNSKNTLYLQMNSLRAEDTAVYYCARDQGVGYDGLDVWGQGTTVTVSS
VL: DIQMTQSPSSLSASVGDRVTITCRTSQGIGNYLAWFQQKPGKAPKSLLYKTSSLQSGVPSKFSGSGSGTDFTLTISSLQPEDFATYYCQQYMTYPLTFGGGTKVEIK
notes: hybridoma mAb
With B16, the results for the “% Change Compared to pH 7.4 + Calcium” value in test [1], in test [2] and in test [3] were -6%, -1% and -6%, respectively.

B17: 73G1 (antibody, V domains shown)
VH: QVQLVESGGGVVQPGRSLRLSCAGTGFTFSYYGMHWVRQAPGKGLEWVAVTTYDGSNKYYADSVKGRFTSSRDNSKNTLYLQMNSLRAEDTAVYHCARETGTWAFDIWGQGTMVTVSL
VL: QTVVTQEPSFSVSPGGTVTLTCGLSSGSVSTSYYPSWYQQTPGQAPRTLIYNTNTRSSGVPDRFSGSILGNKAALTITGAQADDESDYYCVLYMGSAIWVFGGGTKLTVL
notes: hybridoma mAb
As to B17, the “% Change Compared to pH 7.4 + Calcium” value in test [1] worked out at 62%; in test [2], 100%; in test [3], 33%.
